The RNAGym collection of RNA variant scans (doi:10.1073/pnas.2313332121)

B1: TPR t1 (parent)
chain: GACCAAUCUGCCCUCAGAGCUCGAGAACAUCUUCGGAUGCAGAGGAGGCAGGCUUCGGUGGCGCGAUAGCGCCAACGUCCUCAACCUCCAAUGCAUCCCACCACAUGAUGAUGCCUGAAGAGCCUUGGUUUUUUG

Variants of: B1
Assay: polymerase ribozyme fitness, log enrichment relative to wild type (log ratio); higher = more active; in vitro selection for triplet polymerase activity
In short: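 One round of in vitro selection, in triplicate, was applied to PCR-built, transcribed mutant libraries of each subunit of a heterodimeric triplet polymerase ribozyme. The steps were annealing with a biotinylated primer, partner subunit and triplets, incubation frozen at −7 °C, gel excision of extended constructs, streptavidin-bead capture and RT-PCR. Fitness is the logarithm, base 2, of genotype enrichment over wild-type enrichment from inverse-variance-weighted replicate averages of Illumina-sequenced inputs and outputs, keeping genotypes with ≥10 input reads and ≥1 read per output.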

Point of comparison: G39A C62A C72G, “polymerase ribozyme fitness (log ratio)” value -4.2. Against it:
- U38G C56U A91U U125G U126G G127U — higher, -3.43
- A37G G52A G61U — higher, -3.07
- U38G G58U G63C G113C G135C — within 0.2 log units, -4.03
- U38G G47C C62U C85A — lower, -5.9
- A37U C56A — higher, -1.32
- A37U C56U — higher, -0.686
- U38G A84U — higher, -1.9
- A37U G52U C64U C123A C124A — higher, 0.273
- U38G G51C — lower, -6.44
- A37U G122A U130C U131A G135U — higher, -1.18
- U38A G63C C85U — higher, -2.4
- U38G A111C — higher, -0.398
- A37U C72A C73U G117U C124A — higher, -1.66
- A37U C79A U87G U96A A118U — higher, -0.000648
- U38C A46C C53A C76G C80U C94U — higher, -2.96
- A37U G60U — higher, -1.39
- U38G C124U — higher, 0.564
- A37U G48A A105U A111U — lower, -6.33
- A37U C114A A121C U125C — higher, -0.52
- U38G G77A U78C U125A — higher, -1.89
- U38A G52U C62U U78G A90G — higher, -2.07
- A37G G60A G127A — higher, -2
- A37U A43G A50C G52U G110A — lower, -5.79
- G39A A46U G61A U129A — higher, -2.38
- G39A A43U G63U C86G — within 0.2 log units, -4.39
- G39A G57U G71U U78G — higher, -1.84
- U38A C40U — higher, -1.9
- G39A C40G G69U C101A — higher, -2.28
- G39A C62U G122A — higher, -1.13
- G39A G58A A91U — higher, -2.28
- G39A G47U G48A C70U C101A — lower, -5.46
- A37U C94U G117A — higher, -2.17
- G39A C72U U81G U96A G113C C124U — lower, -6.86
- U38G C49U G61U — higher, -1.52
- A37G U131G — higher, -1.11
- A37U C49G G77U G120C — higher, 0.00604
- U38G U96A C101U — higher, -2.15
- A37U G48C A121C — higher, 0.912
- A37U A50C G61A G117C U130C — lower, -4.59
- U38A C53G C88G G120A C123G — higher, -1.3
- G39A G48A C88A — higher, -1.33
- U38A G61C — higher, -2.48
- A37U A41U C79G — within 0.2 log units, -4.3
- A37U C82U G128C U130C — higher, -2.33
- U38A G63A G93U — lower, -4.96
- A37U G39U C104U — higher, -1.36
- A37G U55G C88U A105C G120C U125C — higher, -1.81
- A37U C86U — higher, -0.912
- A37U C73U G120C — higher, 1.31
- G39A G42U C49A G52A — lower, -4.68
- G39A G69A — higher, -3.04
- A37U C49A C86U G117C — within 0.2 log units, -4.27
- G39A A43U C88G C123A — within 0.2 log units, -4.11
- U38G G60A G110C U125A — lower, -6.15
- G39A A75U G110C — lower, -5.51
- U38A C53G C56U G110A — higher, -2.64
- U38G A46C C101U — higher, -2.55
- U38G C79U C97U — lower, -5.59
- A37U A43G C86G — higher, -2.33
- U38A G71A U129A — higher, -3.95
- U38C G110U G135U — higher, -3.96
- A37U C70U C79U — higher, -0.766
- U38A G57A U116A G120A — within 0.2 log units, -4.1
- U38A G39U C82G U130A — higher, -3.44
- U38A C124A — higher, 1.2
- A37U A41G — higher, -0.165
- G39A A43G C73G U129G — lower, -5.71
- A37U G48A — higher, -0.338
- A37U C101A C115U G127C — within 0.2 log units, -4.26
- U38C C101U — higher, -1.08
- G39A A50U A118U — higher, -0.352
- G39A G71C G93U C104U C123A — higher, -3.19
- A37U G69U A95C C101G G127A — higher, -3.13
- A37U G117C G122U — lower, -5.5
- U38C G39U — higher, -1.44
- G39A A46U C64U — higher, -2.95
- U38G A46U G110U — lower, -4.8
- U38A A111G — higher, -1.31
- U38G A95C A100C U106A G127A — higher, -3.43
- U38A C62G — higher, -3.68
- A37U U59A G61C G93U A95G U130G — lower, -5.82
- U38A C80U C123U — higher, -1.04
- A37U G47A U116G — higher, -3.09
- A37U G110A — higher, -1.04
- A37U G110U — higher, -1.34
- A37U C64U U132C — higher, -0.703
- G39A C70U A118G G122A — higher, -0.719
- G39A G61C A118G G122A — higher, -3.03
- G39A G71A — higher, -1.08
- U38G C70U U125G — higher, -2.25
- A37U C62U U96G — higher, -0.183
- U38G C64U A66C A90U A91C U132A — higher, -3.61
- A37U C56U C72U — higher, -0.343
- G39A G48U A50U A84U C85A — higher, -3.82
- A37U C40G G63A A66G C82A U109G — lower, -6.22
- G39A A84C — higher, -1.2
- A37U C56G C72A — higher, -2.62
- G39A C53G G57C — higher, 0.135
- G39A G71C G93C C94U — higher, -2.14
- A37G G69U C89G — higher, -2.64
- A37G U59C A103U G110C G122A — lower, -6.29
- U38G G47U C76U C85U U96C U130C — lower, -5.5
- U38A G45A U129C — higher, -2.96
- G39A C86G — higher, -1.11
- G39A A43G G127U — higher, -2.87
- A37G G61A C101A G127A — higher, -1.91
- A37U C70A U109A — lower, -6.47
- U38G A50G U81C G113A — higher, -1.89
- U38A C80U — higher, -1.43
- A37U C80U C101A — higher, -2.69
- A37G G69U C73U U87C C104A U131G — within 0.2 log units, -4.34
- U38A C49G G60U G61A U116C U125A — lower, -4.75
- G39A A46U U87A U106A — higher, 0.825
- A37U G77A A111C — higher, 0.0508
- U38G U125G — higher, -1.35
- U38A C82A C114A G120C A121C U132C — higher, -3.34
- A37U C123U U126A — higher, 0.344
- A37G U55G C72A U129A — higher, -1.52
- A37U G47C C49U — higher, -2.66
- G39A G63U G69U — higher, -1.34
- U38A G69C — higher, -2.61
- G39A G44U C86A A108U C115U G128U U130G — lower, -6.8
- U38G C56G G57C G77U — higher, -1.18
- U38G G71U U92G G93A U112A — lower, -6.86
- U38G U112C — higher, 0.772
- G39A G45C G51C G69U U125G — higher, -2.57
- A37U U81G — higher, -3.43
- A37U G71A A84C C85U U96A — higher, -0.538
- A37U G52U C62A — higher, -2.78
- A37U C53G C89U C102U U131A — higher, -2.62
- G39A G42U C80U C124U — higher, -1.59
- U38G G45C G69C C101A A119U — lower, -7.2
- U38C C123A — higher, -0.222
- A37U A75U — higher, -0.0341
- G39A G57U U116A U125A — lower, -4.53
- U38G C80U C86U — higher, -1.86
- A37U C82A G93U — higher, -1.72
- A37U G45U G61C — higher, -2.86
- U38G C49U — higher, -2.12
- U38G C56A G69U — higher, -1.9
- U38A G57U G58U — higher, -1.64
- A37U U131A — higher, -0.895
- U38C C56U C98U G110U — lower, -5.51
- U38G C76U — higher, -1.36
- A37U G69A A83U U96A C124U U131A — higher, -1.63
- U38C U112A — higher, 1.08
- A37U C62G — higher, -3.59
- U38G G52A G61A U112G C124U U129G — higher, -1.92
- G39A C56A G71C C124A — lower, -5.6
- A37U U38A G63A — higher, -3.7
- G39A — higher, -0.485
- U38A A50U C123G U133A — higher, -0.425
- G39A C82A — higher, -0.962
- G39A G45A — higher, -1.29
- G39A C49G G61A C89U C102G — lower, -7.76
- A37U C72A U106A G135U — higher, -0.59
- A37U A74U A121C — higher, 1.55
- U38G G57U C62A A91U C97A G117A G120C — lower, -7.34
- A37U C86A U112G G128A — higher, -3.56
- U38A C70U — higher, -1.15
- A37U C49G — higher, -0.828
- A37U G42C C49G C85U G93U C102U U133G — lower, -5.53
- U38A A43C A83U C85A — lower, -5.42
- A37U A50C C70A C124G — higher, -1.17
- U38A C102U A111G U112A U126G U129C — lower, -6.23
- U38A C40U C70U C101U C123G — higher, -1.32
